{
  "source": "patent US12440565",
  "about": "(ZSKY BIOTECH, dated 2025)",
  "binders": {"B1": {"name": "CD40-PD-L1-IgG4 bispecific antibody (bispecific antibody)", "light 1": "DIQMTQSPSSLSASVGDRVTIKCQASQSISSRLAWYQQKPGKPPKLLIYRASTLASGVPSRFSGSGSGTDFTLTISSLQPEDVATYYCQCTGYGISWPIGGGTKVEIKRTVAAPSVFIFPPSDEQLKSGTASVVCLLNNFYPREAKVQWKVDNALQSGNSQESVTEQDSKDSTYSLSSTLTLSKADYEKHKVYACEVTHQGLSSPVTKSFNRGEC", "heavy 1": "not shown", "light 2": "QVQLVQSGAEVKKPGASVKVSCKASGYTFTSYWMHWVRQAPGQGLEWMGRIGPNSGFTSYNEKFKNRVTMTRDTSTSTVYMELSSLRSEDTAVYYCARGGSSYDYFDYWGQGTTVTVSSASVAAPSVFIFPPSDRKLKSGTASVVCLLNNFYPREAKVQWKVDNALQSGNSQESVTEQDSKDSTYSLSSTLTLSKADYEKHKVYACEVTHQGLSSPVTKSFNRGEC", "heavy 2": "DIVLTQSPASLAVSPGQRATITCRASESVSIHGTHLMHWYQQKPGQPPKLLIYAASNLESGVPARFSGSGSGTDFTLTINPVEAEDTANYYCQQSFEDPLTFGQGTKLEIKASTKGPSVFPLAPCSRSTSESTAALGCLVEDYFPEPVTVSWNSGALTSGVHTFPAVLQSSGLYSLSSVVTVPSSSLGTQTYTCNVDHKPSNTKVDEKVESKYGPPCPPCPAPEFEGGPSVFLFPPKPKDTLMISRTPEVTCVVVDVSQEDPEVQFNWYVDGVEVHNAKTKPREEQFNSTYRVVSVLTVLHQDWLNGKEYKCKVSNKGLPSSIEKTISKAKGQPREPQVCTLPPSQEEMTKNQVSLSCAVKGFYPSDIAVEWESNGQPENNYKTTPPVLDSDGSFFLVSRLTVDKSRWQEGNVFSCSVMHEALHNHYTQKSLSLSLGK"}},
  "biological_target": "CD40 on the surface of mature dendritic cells (mDC) (human, UniProt P25942 21-277)",
  "sequence (P25942 21-277)": "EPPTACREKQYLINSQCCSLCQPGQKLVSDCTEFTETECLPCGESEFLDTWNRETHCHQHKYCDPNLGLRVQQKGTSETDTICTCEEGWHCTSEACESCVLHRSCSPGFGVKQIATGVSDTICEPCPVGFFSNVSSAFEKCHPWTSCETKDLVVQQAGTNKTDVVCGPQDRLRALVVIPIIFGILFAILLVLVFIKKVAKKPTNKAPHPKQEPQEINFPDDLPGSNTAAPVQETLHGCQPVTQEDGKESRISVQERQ",
  "assay": "cell-based or functional assay",
  "data": [
    {"binder": "B1", "values": [
      {"measurement": "increase rate of CD83 positive ratio over control, bispecific antibody", "result": 19, "unit": "%"}
    ]}
  ]
}
